We go through three substances from article doi:10.1101/164319.

The target of this assay is Arp2/3 complex from strain Arp2cys-Arp3cys, labeled with Alexa 488 and Alexa 594 (Schizosaccharomyces pombe) (UniProt P78774). The assay can be described thus: FRET or BRET. Background: In BRET a luciferase serves as donor, and the signal depends on an acceptor being close.
Sequence of UniProt P78774 (P78774 whole entry, looked up, one chain of several): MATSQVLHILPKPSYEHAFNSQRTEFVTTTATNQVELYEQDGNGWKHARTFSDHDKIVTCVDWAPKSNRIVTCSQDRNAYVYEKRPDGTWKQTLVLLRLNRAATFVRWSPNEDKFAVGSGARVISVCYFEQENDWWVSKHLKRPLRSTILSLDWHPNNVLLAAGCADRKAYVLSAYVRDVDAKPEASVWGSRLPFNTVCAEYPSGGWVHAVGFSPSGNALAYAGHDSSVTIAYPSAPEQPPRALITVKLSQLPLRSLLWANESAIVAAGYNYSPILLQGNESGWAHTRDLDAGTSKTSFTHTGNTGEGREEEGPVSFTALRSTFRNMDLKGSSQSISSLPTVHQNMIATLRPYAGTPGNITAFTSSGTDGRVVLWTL

“S. pombe Wsp1p-VCA (497Q–574D) (from UniProt O36027 497-574) (domain or fragment)” registered an increase of mean ETeff at 20 μM VCA of 0.13.

Regarding “S. pombe Wsp1-CA (541SC–574D) (from UniProt O36027 541-574) (domain or fragment)”, the increase of mean ETeff at 20 μM CA was 0.06.

As for “VCA crosslinked to an actin monomer (actin-VCA) (from UniProt O36027 497-574; P68139 1-377) (complex)”, the increase of mean ETeff at 2 μM actin-VCA came out at 0.12.
